Measurements reported in patent US5795721.
pKd: −log10 of the molar value.

Target: T1, FP505 (ICP4 residues 210-490 DNA-binding/dimerization domain fusion) (Herpes simplex virus 1) (UniProt P08392)
T1 sequence: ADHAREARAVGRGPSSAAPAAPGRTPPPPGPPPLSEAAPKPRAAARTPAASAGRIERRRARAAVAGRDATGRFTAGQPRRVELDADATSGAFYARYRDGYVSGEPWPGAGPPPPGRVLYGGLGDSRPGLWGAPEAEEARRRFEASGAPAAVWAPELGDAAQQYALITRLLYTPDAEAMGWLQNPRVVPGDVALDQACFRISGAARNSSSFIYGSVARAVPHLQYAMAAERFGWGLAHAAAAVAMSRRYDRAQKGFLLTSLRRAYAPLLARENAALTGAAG
Experiment: filter

GGGAGACAAGAAUAAACGCUCAANNNNNNNNNNNNNNNNNNNNNNNNNNNNNNNNNNNNNNNNUUCGACAGGAGGCUCACAACAGGC [random RNA pool]
pKd (random pool): < 7.00

GGGAGGACAGTGCGGNNNNNNNNNNNNNNNNNNNNNNNNNNNNNNNNNNNNNNNNCAGTGCGTCAGTCAAC [random ssDNA pool]
pKd (with tRNA, >11 nM without tRNA): < 6.80

ICP0 promoter duplex 200mer
pKd (without tRNA, >1 uM with tRNA excess): 9.30
